No end group written: not given here.
What was measured:
Botrytis cinerea = format: cell-based; conditions: B cinerea, 48 hours of incubation
Ascochyta pisi = format: cell-based; conditions: A pisi, 48 hours of incubation
Phoma betae = format: cell-based; conditions: P betae, 48 hours of incubation
Verticillium dahliae = format: cell-based; conditions: V dahliae, 48 hours of incubation
Venturia inaequalis = format: cell-based; conditions: V inaequalis, 10 days of incubation
[1] = system: Fusarium oxysporum f.sp. pisi; format: cell-based; conditions: 48 hours of incubation
Alternaria brassicola = format: cell-based; conditions: A brassicola, 48 hours of incubation
Fusarium culmorum [2] = format: cell-based; conditions: F culmorum, 48 hours of incubation
Fusarium culmorum [3] = assay: Stability of the antifungal activity of the Mj-AMPs; format: cell-based
Protocol: Antifungal activity was measured by microspectrophotometry as previously described (Broekaert, WF et al; 1990; FEMS Microbiol Lett, 69, 55-60). Routinely, tests were performed with 20 μl of a (filter-sterilized) test solution and 80 μl of a fungal spore suspension (2×10^4 spores/ml) in half strength Potato Dextrose Broth (Difco). Control microcultures contained 20 μl of (sterile) distilled water and 80 μl of the fungal spore suspension. Unless otherwise stated the test organism was Fusarium culmorum and incubation was done at 25° C. for 48 hours. Percent growth inhibition is defined as 100 times the ratio of the corrected absorbance of the control microculture minus the corrected absorbance of the test microculture over the corrected absorbance at 595 nm of the control microculture. The corrected absorbance values equal the absorbance at 595 nm of the culture measured after 48 hours minus the absorbance at 595 nm measured after 30 min. Values of growth inhibition lower than 10% are not indicated on the chromatograms.
Table 1 summarises the results of further testing of the stability of the antifungal activity of the Mj-AMPs. Tests for antifungal activity were performed with 20 μl samples diluted five-fold with growth medium containing Fusarium culmorum spores (2×10^4 spores/ml), according to the assay method given in Example 2. Control samples contained either Mj-AMP1 at 500 μg/ml or Mj-AMP2 at 100 μg/ml in 10 mM sodium phosphate buffer (pH 7). Reduction was done by addition of DTT at 2.5 mM followed by incubation at 37° C. for 2 hours. pH stability was tested in the following buffers: 20 mM glycine-HCl (pH 2 and 3); 20 mM diethanolamine-HCl (pH 10); and 20 mM glycine-NaOH (pH 11). After 1 hour of incubation in the appropriate buffers the samples were dialyzed for 16 hours against 10 mm sodium phosphate buffer (pH 7). For digestions, proteases were added at 100 μg/ml and incubated at 37° C. for 16 hours.

Isoelectric focusing = format: physicochemical; conditions: isoelectric focusing on Immobiline Dry Strips
Protocol: PAS staining for glycoproteins was done by the method of Zacharius, RM et al (1969; Anal Biochem, 30, 148-152) using ovalbumin (3.2% carbohydrate) as a positive control sample. The pI values of Mj-AMP1 and Mj-AMP2 were determined by isoelectric focusing and found to be about 10.5 for both proteins. Isoelectric focussing was done on precast Immobiline Dry Strips (Pharmacia) using marker proteins in the pI range from 4.7 to 10.6 (Pharmacia).

Pyricularia oryzae = format: cell-based
Nectria haematococca = format: cell-based; conditions: N haematococca, 48 hours of incubation
[4] = system: Colletotrichum lindemuthianum; format: cell-based; conditions: C lindemuthianum, 48 hours of incubation
[5] = system: Fusarium oxysporum f.sp. lycopersici; format: cell-based; conditions: 48 hours of incubation
Escherichia coli = assay: Antibacterial activity in vitro test; format: cell-based; conditions: E coli, 48 hours
Protocol: (§1) The antibacterial activity of the Mj-AMPs was tested against a range of gram-positive and gram-negative bacteria: Bacillus megaterium, Sarcina lutea, Escherichia coli and Erwinia carotovora. β-purothionin and UDA were also tested for comparison (see Example 7). Tests were performed in soft agarose medium containing 1% tryptone and, with or without 1 mM CaCl2 and 50 mM KCl. Absorbance, 595 nm, of the culture was measured after 48 hours.

Erwinia carotovora = assay: Antibacterial activity in vitro test; format: cell-based; conditions: E carotovora, 48 hours
Protocol: as §1

Sarcina lutea = assay: Antibacterial activity in vitro test; format: cell-based; conditions: S lutea, 48 hours
Protocol: as §1

Bacillus megaterium = assay: Antibacterial activity in vitro test; format: cell-based; conditions: B megaterium, 48 hours
Protocol: as §1

Saccharomyces cerevisiae = assay: Inhibitory activity against yeast; format: cell-based; design: key: +++:complete inhibition; +:some inhibition; -:no inhibition
Protocol: The inhibitory activity of Mj-AMPs against yeast, Saccharomyces cerevisiae was tested. The results shown in Table 5 indicate that Mj-AMPs do inhibit the growth of yeast at concentrations of 500 μg/ml or above.

[6] = system: Pyrenophora tritici-repentis; format: cell-based; conditions: P tritici-repentis, 48 hours of incubation
[7] = MEDIUM +Ca/K (1 mM CaCl2 and 50 mM KCl)

Molecule: Mj-AMP2: antimicrobial protein from Mirabilis jalapa seeds, dimer of two 3.5 kDa subunits, 36 residues, SEQ ID NO:2 (CIGNGGRCNENVGPPYCCSGFCLRQPNQGYGVCRNR; cysteine pairing not given here; also: homodimer)
- IC50 (Botrytis cinerea): 2 µg/mL
- IC50 (Ascochyta pisi): 6 µg/mL
- IC50 (Phoma betae): 6 µg/mL
- IC50 (Verticillium dahliae): 0.5 µg/mL
- IC50 (Venturia inaequalis): 1 µg/mL
- IC50 [1]: 5 µg/mL
- IC50 (Alternaria brassicola): 6 µg/mL
- IC50 (Fusarium culmorum [2]): 3 µg/mL
- Relative antifungal activity (shown as % of control activity) (Fusarium culmorum [3]; 80° C., 10 min): 100 % of control activity
- Relative antifungal activity (shown as % of control activity) (Fusarium culmorum [3]; 90° C., 10 min): 100 % of control activity
- Relative antifungal activity (shown as % of control activity) (Fusarium culmorum [3]; 100° C., 10 min): 100 % of control activity
- Relative antifungal activity (shown as % of control activity) (Fusarium culmorum [3]; Chymotrypsin digestion, 100 μg/ml, 37° C., 16 hours): 50 % of control activity
- Relative antifungal activity (shown as % of control activity) (Fusarium culmorum [3]; Control: Mj-AMP1 500 μg/ml or Mj-AMP2 100 μg/ml in 10 mM sodium phosphate buffer pH 7): 100 % of control activity
- Relative antifungal activity (shown as % of control activity) (Fusarium culmorum [3]; Pronase E digestion, 100 μg/ml, 37° C., 16 hours): 25 % of control activity
- Relative antifungal activity (shown as % of control activity) (Fusarium culmorum [3]; Proteinase K digestion, 100 μg/ml, 37° C., 16 hours): 100 % of control activity
- Relative antifungal activity (shown as % of control activity) (Fusarium culmorum [3]; Reduction: DTT 2.5 mM, 37° C., 2 hours): < 3 % of control activity
- Relative antifungal activity (shown as % of control activity) (Fusarium culmorum [3]; Trypsin digestion, 100 μg/ml, 37° C., 16 hours): 100 % of control activity
- Relative antifungal activity (shown as % of control activity) (Fusarium culmorum [3]; pH 2, 60 min): 100 % of control activity
- Relative antifungal activity (shown as % of control activity) (Fusarium culmorum [3]; pH 3, 60 min): 100 % of control activity
- Relative antifungal activity (shown as % of control activity) (Fusarium culmorum [3]; pH 10, 60 min): 100 % of control activity
- Relative antifungal activity (shown as % of control activity) (Fusarium culmorum [3]; pH 11, 60 min): 100 % of control activity
- Sensitivity to protease (in words) (Fusarium culmorum [3]; pronase E): most sensitive
- pI (Isoelectric focusing): about 10.5
- IC50 (Pyricularia oryzae): 0.5 µg/mL
- IC50 (Nectria haematococca): 0.5 µg/mL
- IC50 [4]: 1 µg/mL
- IC50 [5]: 10 µg/mL
- IC50 (Escherichia coli; [7]): > 500 µg/mL
- IC50 (Escherichia coli; MEDIUM -Ca/K): > 500 µg/mL
- IC50 (Erwinia carotovora; [7]): > 500 µg/mL
- IC50 (Erwinia carotovora; MEDIUM -Ca/K): > 500 µg/mL
- IC50 (Sarcina lutea; [7]): > 500 µg/mL
- IC50 (Sarcina lutea; MEDIUM -Ca/K): 50 µg/mL
- IC50 (Bacillus megaterium; [7]): 10 µg/mL
- IC50 (Bacillus megaterium; MEDIUM -Ca/K): 2 µg/mL
- Inhibitory activity against yeast (Saccharomyces cerevisiae; with Ca/K, 5 μg/ml): -
- Inhibitory activity against yeast (Saccharomyces cerevisiae; with Ca/K, 50 μg/ml): +++
- Inhibitory activity against yeast (Saccharomyces cerevisiae; with Ca/K, 500 μg/ml): +++
- Inhibitory activity against yeast (Saccharomyces cerevisiae; without Ca/K, 5 μg/ml): +++
- Inhibitory activity against yeast (Saccharomyces cerevisiae; without Ca/K, 50 μg/ml): +++
- Inhibitory activity against yeast (Saccharomyces cerevisiae; without Ca/K, 500 μg/ml): +++
- IC50 [6]: 20 µg/mL

B1: UDA: known antifungal protein isolated from stinging nettle (Urtica dioica) rhizomes (protein, UniProt P11218 24-372, looked up)
Lectin/endochitinase 1: QRCGSQGGGGTCPALWCCSIWGWCGDSEPYCGRTCENKCWSGERSDHRCGAAVGNPPCGQDRCCSVHGWCGGGNDYCSGSKCQYRCSSSVRGPRVALSGNSTANSIGNVVVTEPLFDQMFSHRKDCPSQGFYSYHSFLVAAESFPAFGTIGDVATRKREVAAFLAHISQATSGERSDVENPHAWGLCHINTTTVTENDFCTSSDWPCAAGKKYSPRGPIQLTHNFNYGLAGQAIGEDLIQNPDLVEKDPIISFKTALWFWMSQHDNKPSCHDIVLNANSAANRIPNKGVIGNIISRAFGHDDFAVRSSSIGFYKRYCDMLGVSYGHDLKYWFDNTPSSEFQRIQMRVAA
- IC50 (Botrytis cinerea): > 1,000 μg/ml
- IC50 (Ascochyta pisi): 1,000 μg/ml
- IC50 (Phoma betae): 50 µg/mL
- IC50 (Verticillium dahliae): 80 µg/mL
- IC50 (Venturia inaequalis): 1,000 μg/ml
- IC50 [1]: > 1,000 μg/ml
- IC50 (Alternaria brassicola): 200 µg/mL
- IC50 (Fusarium culmorum [2]): > 1,000 μg/ml
- IC50 (Nectria haematococca): 200 µg/mL
- IC50 [4]: 20 µg/mL
- IC50 (Escherichia coli; [7]): > 500 µg/mL
- IC50 (Escherichia coli; MEDIUM -Ca/K): > 500 µg/mL
- IC50 (Erwinia carotovora; [7]): > 500 µg/mL
- IC50 (Erwinia carotovora; MEDIUM -Ca/K): > 500 µg/mL
- IC50 (Sarcina lutea; [7]): > 500 µg/mL
- IC50 (Sarcina lutea; MEDIUM -Ca/K): > 500 µg/mL
- IC50 (Bacillus megaterium; [7]): > 500 µg/mL
- IC50 (Bacillus megaterium; MEDIUM -Ca/K): 250 µg/mL
- IC50 [6]: 200 µg/mL
